Reference: patent publication US20040151721A1 (Takeda / Millennium, published 2004)
Values joined by “and” are separate entries in the source; they are usually repeats but may differ in a detail not shown here. Identical values can stand only once.

Assays:
[1] = molecular target: T1, CCR1 expressed on L1/2 transfectants (UniProt P32246 1-355, limits assumed); assay: flow cytometry on L1/2 transfectants, hybridoma supernatant
T1 construct: whole, on cells; also called CCR1 transfectants
T1 sequence (looked up): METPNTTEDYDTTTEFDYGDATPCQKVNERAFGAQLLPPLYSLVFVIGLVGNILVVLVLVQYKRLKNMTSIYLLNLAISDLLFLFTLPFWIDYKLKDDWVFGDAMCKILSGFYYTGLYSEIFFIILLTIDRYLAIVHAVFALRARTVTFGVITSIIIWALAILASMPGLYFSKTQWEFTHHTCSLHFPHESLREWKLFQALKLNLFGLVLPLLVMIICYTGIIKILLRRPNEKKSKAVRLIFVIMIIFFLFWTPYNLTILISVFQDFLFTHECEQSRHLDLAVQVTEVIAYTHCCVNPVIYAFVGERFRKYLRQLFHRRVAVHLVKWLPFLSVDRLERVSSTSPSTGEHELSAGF
Protocol: (§1) For the staining of cultured transfectant cell lines 0.5×10^6 cells in 50 μl were resuspended in PBS+1% FCS in a 96 well polystyrene V-bottom plate. 50 μl of primary antibody supernatants or HT medium (negative control) were added, and the samples were incubated at 4° C. for 30 min. 100 μl of PBS were added and the cells were pelleted by centrifugation and washed once with PBS. The pellet was resuspended in 100 μl PBS+1% FCS containing FITC-conjugated goat anti-mouse IgG antibody (a 1:250 dilution) and incubated for thirty minutes at 4° C. in the dark. The cells were washed twice with PBS, resuspended in PBS, and analyzed by flow cytrometry with a FacScan cytometer using the CellQuest software (Becton-Dickenson) Cells were fixed with PBS/1% formaldehyde if they were not to be analyzed the same day. Monoclonal antibodies 1D9 and 8G2 stain CCR2 transfectants but not CCR1 or CCR5 transfectants (FIG. 1).

[2] = molecular target: T2, CCR5 expressed on L1/2 transfectants (UniProt P51681 1-352, limits assumed); assay: as above
T2 construct: whole, on cells; also called CCR5 transfectants
T2 sequence (P51681 whole entry): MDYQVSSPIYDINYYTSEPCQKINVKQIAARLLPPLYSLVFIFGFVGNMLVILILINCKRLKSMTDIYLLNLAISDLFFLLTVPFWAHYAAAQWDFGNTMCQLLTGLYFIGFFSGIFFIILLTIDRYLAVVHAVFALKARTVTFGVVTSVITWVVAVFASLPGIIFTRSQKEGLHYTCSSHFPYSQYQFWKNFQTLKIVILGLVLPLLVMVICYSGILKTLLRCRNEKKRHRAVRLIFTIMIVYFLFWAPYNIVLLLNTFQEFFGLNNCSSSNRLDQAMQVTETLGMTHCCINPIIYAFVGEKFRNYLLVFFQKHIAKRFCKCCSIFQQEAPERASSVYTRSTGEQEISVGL
Protocol: as §1

[3] = molecular target: T3, human CCR2, endogenous on THP-1 cells / THP-1 cell membranes, fresh PBMC and whole blood cells (human, UniProt P41597 1-374); assay: inhibition of 0.1 nM [125I]MCP-1 binding to THP-1 cell membranes, filtration and scintillation counting
T3 construct: whole, on cells; Native receptor; It was used on whole cells and as a THP-1 membrane preparation; The splice form is not specified for THP-1; also called CCR2b (on blood cells)
T3 sequence (P41597 whole entry, canonical isoform): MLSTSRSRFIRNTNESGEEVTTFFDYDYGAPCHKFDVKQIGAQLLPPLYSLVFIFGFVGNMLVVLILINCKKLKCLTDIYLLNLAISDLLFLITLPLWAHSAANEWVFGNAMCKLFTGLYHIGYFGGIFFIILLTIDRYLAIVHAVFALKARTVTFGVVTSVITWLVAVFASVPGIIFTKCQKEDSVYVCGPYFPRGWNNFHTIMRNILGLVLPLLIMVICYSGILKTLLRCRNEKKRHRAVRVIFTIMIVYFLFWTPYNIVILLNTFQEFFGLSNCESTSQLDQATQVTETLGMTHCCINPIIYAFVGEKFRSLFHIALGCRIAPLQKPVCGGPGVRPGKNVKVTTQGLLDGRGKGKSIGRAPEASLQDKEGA
Protocol: The amount of bound tracer was determined by separation of free from bound by filtration and scintillation counting. The data was analyzed to determine the IC50 value by non-linear regression using a 4-parameter logistic equation with KaleidaGraph software.
(§2) Competition binding experiments were performed by including variable concentrations of unlabeled MCP-1, 1D9 antibody, or a negative control IgG2a. Nonspecific binding was determined following the addition of a 2500-fold excess of unlabeled MCP-1. Samples were incubated for 60 minutes at room temperature, and bound and free tracer were separated by filtration through 96-well GF/B filterplates presoaked in 0.3% polyethyleneimine.

[4] = molecular target: T3, human CCR2, endogenous on THP-1 cells / …; assay: inhibition of 0.1 nM [125I]MCP-1 binding to fresh PBMC, filtration and scintillation counting
Protocol: The amount of bound tracer was determined by separation of free from bound by filtration and scintillation counting. The data was analyzed to determine the IC50 value as for FIG. 4.
as §2

B1: murine monoclonal antibody LS132.1D9 (1D9) (antibody, V domains shown)
VH: EVQLVESGGGLVQPKGSLKLSCAASGFSFNAYAMNWVRQAPGKGLEWVARIRTKNNNYATYYADSVKDRYTISRDDSESMLFLQMNNLKTEDTAMYYCVTFYGNGVWGTGTTVTVSS
VL: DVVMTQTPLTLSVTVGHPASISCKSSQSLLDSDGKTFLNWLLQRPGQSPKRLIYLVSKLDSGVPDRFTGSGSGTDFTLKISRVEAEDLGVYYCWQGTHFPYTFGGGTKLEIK
notes: Mouse hybridoma antibody with a kappa light chain; The controls used were murine IgG2a and an 'isotype-matched' antibody, so IgG2a is implied; It was used as hybridoma supernatant in FACS; also called mAb 1D9; mus-1D9
[1]
  binding result: no binding
[2]
  binding result: no binding
[3]
  IC50: ~0.004 µg/mL and ~0.02 nM
[4]
  IC50: 0.04 µg/mL and ~0.2 nM
